# Literature values as cited in publication PMC11497281.
# Molecular target: Asp27 (UniProt position 27, WNLPADLAWFK)
substance,measurement,value
Dihydrofolate reductase (DHFR) (Escherichia coli),pKa,approximately 6.5
